Measurements as given in patent publication US20260265697A1, “COMPOSITIONS AND METHODS OF PREPARING AIRWAY CELLS” (Yale University, priority 2014, published 2026).

What was measured:
human iPS cells = test: Differentiation of human iPS cells to definitive endoderm (DE), flow cytometry at day 5; type: cell-based
Procedure: iPS cells were first differentiated towards definitive endoderm (DE). DE cells were initiated under conditions described previously. Briefly, iPS cells were cultured in RPMI 1640 medium supplemented with 100 ng/ml activin A, 2 mM L-glutamine and 1% antibiotic-antimycotic for 48 hours. Then, 1×B27 supplement and 0.5 mM sodium butyrate were added into the same medium and iPS cells were cultured in this medium for 3 days with daily medium changes.
(§1) For flow cytometry, cells were fixed with the fixation solution from the Fixation/Permeabilization kit (BD Biosciences), and stained with primary and detection antibodies as described by the manufacturer. Briefly cells were dissociated into single-cell suspensions by incubation with 0.25% trypsin for 2 min. The dissociated cells were resuspended (0.5×10^6 cells) in 250 μl of fixation/permeabilization solution, kept on ice for 20 min, and washed twice with Perm/Wash buffer. After blocking with blocking solution for 30 min on ice, the cells were incubated with corresponding primary antibody in the blocking solution for 30 min on ice. The cells were resuspended in 350 μl of Perm/Wash buffer after incubation with corresponding conjugated secondary for 30 min on ice, washed twice, and analyzed by flow cytometry.
Human iPS cells were differentiated to DE cells using serum free conditions (FIG. 1). By exposing iPS cells to saturating concentrations of activin A, greater than 85% endodermal cells were generated. […] 89% of cells were positive for c-kit (FIG. 2A), 91% positive for SOX17 (FIG. 2C), 93% positive for FOXA2 (FIG. 2B), and 88% of the cells expressed the endoderm surface marker CXCR4 (FIG. 2D) in clone C1.

[1] = system: iPS cell-derived DE cells; test: Anterior foregut endoderm (AFE) differentiation of DE cells, FOXA2+SOX2+ cells by flow cytometry; type: cell-based, human; settings: day 7, flow cytometry, FIG. 3A
Procedure: (§2) Subsequently, the DE cells were trypsinized and replated on human ECM protein coated plates and were differentiated to anterior foregut endoderm (AFE) by exposing them sequentially between days d5 to d7 to combinations of the small molecule inhibitors in IMDM with 10% FBS, 2 mM L-glutamine, 1 mM nonessential amino acids, 1% antibiotic-antimycotic.
as §1, with “After blocking with blocking solution for 30 min on ice, the cells were incubated with corresponding primary antibody in the blocking solution for 30 min on ice.” left out, “cytometry. […]” for “cytometry.”
BMP4 signaling is required for lung specification and an increase in bFGF and WNT concentration increases NKX2.1^+immature lung progenitors. […] The numbers of cells double positive for FOXA2^+SOX2^+anterior endoderm cells were quantified out of the total FOXA2^+endoderm cells by flow cytometry.

[2] = system: iPS cell-derived DE cells; test: Lung endoderm specification of DE cells, NKX2.1+ and NKX2.1+FOXA2+ cells; type: cell-based, human; settings: FIG. 3B
Procedure: as §2
Then AFE cells were maintained in lung endoderm differentiation medium consisting of IMDM with 20% FBS, 2 mM L-glutamine, 1 mM nonessential amino acids, 1% antibiotic-antimycotic, retinoic acid (0.5 μM), bFGF (10 ng/ml), BMP4 (10 ng/ml), Wnt3a (100 ng/ml), and KGF (10 ng/ml each) for 5 days. […]
For flow cytometry, cells were fixed with the fixation solution from the Fixation/Permeabilization kit (BD Biosciences), and stained with primary and detection antibodies as described by the manufacturer. […] The cells were resuspended in 350 μl of Perm/Wash buffer after incubation with corresponding conjugated secondary for 30 min on ice, washed twice, and analyzed by flow cytometry.
NKX2.1^+is the earliest marker of cells that distinguish future lung from other derivatives of the foregut endoderm. […] The percentages of NKX2.1^+ cells were quantified as percentages of the total cells present. […]

[3] = day 5, flow cytometry, clone C1

B1: activin A (protein, UniProt P08476 311-426, looked up)
Inhibin beta A chain: GLECDGKVNICCKKQFFVSFKDIGWNDWIIAPSGYHANYCEGECPSHIAGTSGSSLSFHSTVINHYRMRGHSPFANLKSCCVPTKLRPMSMLYYDDGQNIIKKDIQNMIVEECGCS
modifications: Inhibin beta A chain
notes: agent that induces differentiation of iPS cells to definitive endoderm cells
cells expressing endoderm surface marker CXCR4 (human iPS cells; [3]): 88% | cells positive for FOXA2 (human iPS cells; [3]): 93% | cells positive for SOX17 (human iPS cells; [3]): 91% | cells positive for c-kit (human iPS cells; [3]): 89% | endodermal cells generated (human iPS cells; saturating concentrations of activin A, serum free conditions): greater than 85% | number of FOXA2+SOX2+ anterior endoderm cells out of total FOXA2+ endoderm cells [1]: rare | number of NKX2.1+ cells (percentage of total cells) [2]: few
